Source: the supplement of paper PMC9876800

Tested on: peptide library, one residue held at a place counted from the S/T acceptor
Assay: relative phosphorylation of the sub-library (ratio to the mean residue at this position); higher = residue favoured
Procedure, shortened: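 In 384-well plates, purified recombinant kinases (human or orthologue constructs) were incubated for 90 min under kinase-specific conditions with 50 μM biotinylated degenerate peptide sub-libraries and 50 μM ATP spiked with γ-32P-ATP. Each sub-library fixed a single residue at one position around a central Ser/Thr. Relative sub-library phosphorylation, measured by phosphorimaging and densitometry of streptavidin membrane spots, is given as a ratio to the mean residue at that position.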

Sequence of HUNK, construct: Full length, human (P57058 whole entry, looked up): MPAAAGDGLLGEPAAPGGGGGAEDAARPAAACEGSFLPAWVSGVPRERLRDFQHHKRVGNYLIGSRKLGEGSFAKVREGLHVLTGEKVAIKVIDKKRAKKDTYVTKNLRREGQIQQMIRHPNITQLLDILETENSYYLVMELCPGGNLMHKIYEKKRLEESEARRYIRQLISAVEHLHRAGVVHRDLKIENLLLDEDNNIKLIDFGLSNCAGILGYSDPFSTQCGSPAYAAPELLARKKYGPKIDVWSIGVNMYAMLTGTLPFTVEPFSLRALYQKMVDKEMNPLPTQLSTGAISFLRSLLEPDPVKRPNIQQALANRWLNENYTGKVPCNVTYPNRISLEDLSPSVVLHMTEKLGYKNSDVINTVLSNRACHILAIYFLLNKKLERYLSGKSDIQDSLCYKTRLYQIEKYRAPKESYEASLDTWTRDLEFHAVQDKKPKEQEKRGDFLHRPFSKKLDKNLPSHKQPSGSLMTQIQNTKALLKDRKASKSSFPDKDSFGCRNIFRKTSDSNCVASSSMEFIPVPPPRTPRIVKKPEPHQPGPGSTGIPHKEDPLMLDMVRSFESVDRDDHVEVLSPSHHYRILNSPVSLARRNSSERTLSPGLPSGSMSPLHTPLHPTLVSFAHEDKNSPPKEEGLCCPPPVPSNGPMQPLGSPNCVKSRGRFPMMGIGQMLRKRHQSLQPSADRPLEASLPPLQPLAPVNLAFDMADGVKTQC
Sequence of MAP3K14, construct: aa327-673, human (Q99558 327-673, looked up): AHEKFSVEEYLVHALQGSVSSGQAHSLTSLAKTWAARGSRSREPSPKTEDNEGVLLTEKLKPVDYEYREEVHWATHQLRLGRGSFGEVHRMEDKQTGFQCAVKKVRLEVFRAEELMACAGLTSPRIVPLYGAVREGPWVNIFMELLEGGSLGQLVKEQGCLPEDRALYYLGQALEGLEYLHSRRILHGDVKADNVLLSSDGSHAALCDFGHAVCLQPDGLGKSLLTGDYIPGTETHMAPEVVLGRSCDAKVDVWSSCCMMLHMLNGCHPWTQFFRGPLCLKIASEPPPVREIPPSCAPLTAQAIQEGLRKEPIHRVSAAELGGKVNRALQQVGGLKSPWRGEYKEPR
Sequence of MARK2, construct: Full length, human (Q7KZI7 whole entry, looked up): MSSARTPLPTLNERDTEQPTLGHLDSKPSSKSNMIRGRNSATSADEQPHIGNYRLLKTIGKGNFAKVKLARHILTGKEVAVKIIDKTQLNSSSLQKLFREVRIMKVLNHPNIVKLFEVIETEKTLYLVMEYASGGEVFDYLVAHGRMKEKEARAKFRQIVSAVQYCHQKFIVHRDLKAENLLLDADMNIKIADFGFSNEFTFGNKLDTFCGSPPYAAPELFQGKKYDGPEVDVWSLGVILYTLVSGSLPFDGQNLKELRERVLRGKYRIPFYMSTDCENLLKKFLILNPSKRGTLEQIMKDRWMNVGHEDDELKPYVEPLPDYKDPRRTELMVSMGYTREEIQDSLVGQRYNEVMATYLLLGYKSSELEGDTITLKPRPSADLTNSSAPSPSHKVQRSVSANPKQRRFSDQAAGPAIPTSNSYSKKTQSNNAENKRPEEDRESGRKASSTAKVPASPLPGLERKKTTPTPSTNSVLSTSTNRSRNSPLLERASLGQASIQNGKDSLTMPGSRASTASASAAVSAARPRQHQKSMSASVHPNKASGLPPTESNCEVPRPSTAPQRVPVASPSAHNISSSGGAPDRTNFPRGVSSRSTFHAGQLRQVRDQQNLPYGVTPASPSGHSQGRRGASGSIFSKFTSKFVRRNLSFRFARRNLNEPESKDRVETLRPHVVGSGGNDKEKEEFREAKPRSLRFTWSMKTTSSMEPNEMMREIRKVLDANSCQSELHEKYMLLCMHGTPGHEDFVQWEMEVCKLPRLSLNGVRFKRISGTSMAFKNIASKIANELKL
Sequence of AURKC, construct: Full length, human (Q9UQB9 whole entry, looked up): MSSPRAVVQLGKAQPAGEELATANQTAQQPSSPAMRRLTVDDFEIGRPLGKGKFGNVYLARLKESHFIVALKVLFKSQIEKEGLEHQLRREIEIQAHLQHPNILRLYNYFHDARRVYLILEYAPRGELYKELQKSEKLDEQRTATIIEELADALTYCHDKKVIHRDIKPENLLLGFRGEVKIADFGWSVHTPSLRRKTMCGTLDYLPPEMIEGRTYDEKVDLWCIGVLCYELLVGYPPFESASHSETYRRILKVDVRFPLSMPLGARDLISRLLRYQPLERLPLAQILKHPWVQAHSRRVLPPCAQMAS

MAP3K14, construct: aa327-673, human (from UniProt Q99558)
relative phosphorylation
Conditions | at +1 | at +2 | at +3 | at +4 | at -1 | at -2 | at -3 | at -4 | at -5
A fixed | 0.858 | 0.835 | 0.87 | 0.88 | 0.975 | 1.06 | 0.893 | 1 | 0.972
D fixed | 0.726 | 0.707 | 0.858 | 0.865 | 0.8 | 0.709 | 0.687 | 0.783 | 0.764
E fixed | 0.775 | 0.682 | 0.769 | 0.786 | 0.755 | 0.73 | 0.705 | 0.877 | 0.735
F fixed | 1.21 | 0.85 | 0.978 | 0.96 | 0.787 | 0.923 | 0.751 | 0.89 | 1.04
G fixed | 0.867 | 0.83 | 0.956 | 1.04 | 1.09 | 1.01 | 0.925 | 1.02 | 0.917
H fixed | 0.973 | 1.15 | 1.11 | 1.04 | 1.16 | 1.08 | 1.08 | 1.06 | 1.05
I fixed | 1 | 0.886 | 0.795 | 0.924 | 0.66 | 0.713 | 0.64 | 0.804 | 0.879
K fixed | 1.08 | 1.68 | 1.36 | 1.36 | 1.49 | 1.19 | 1.92 | 1.53 | 1.38
L fixed | 1.09 | 0.908 | 0.971 | 1.02 | 0.874 | 0.78 | 0.731 | 0.896 | 1.23
M fixed | 1.26 | 0.844 | 0.875 | 0.962 | 0.966 | 1.02 | 0.753 | 0.977 | 1.04
N fixed | 0.909 | 0.978 | 1.18 | 1.09 | 1.19 | 0.954 | 0.904 | 1.02 | 0.911
P fixed | 0.69 | 0.817 | 0.935 | 1.25 | 1.02 | 0.763 | 0.843 | 0.924 | 1.05
Q fixed | 1.09 | 0.918 | 0.979 | 1.06 | 1.04 | 1.18 | 0.97 | 1.03 | 0.921
R fixed | 1.2 | 2.11 | 1.49 | 1.23 | 1.63 | 1.94 | 2.81 | 1.49 | 1.43
V fixed | 0.988 | 0.892 | 0.81 | 0.866 | 0.687 | 0.76 | 0.652 | 0.843 | 0.808
W fixed | 1.21 | 0.909 | 1.09 | 0.827 | 0.814 | 1.12 | 0.939 | 0.938 | 0.945
Y fixed | 1.06 | 0.998 | 0.983 | 0.841 | 1.07 | 1.07 | 0.793 | 0.931 | 0.921
pThr fixed | 0.918 | 0.837 | 0.843 | 0.923 | 0.678 | 0.769 | 0.827 | 0.899 | 0.877
pTyr fixed | 0.869 | 0.849 | 0.889 | 0.774 | 0.829 | 0.824 | 1.01 | 0.941 | 0.985

AURKC, construct: Full length, human (from UniProt Q9UQB9)
relative phosphorylation
Conditions | at +1 | at +2 | at +3 | at +4 | at -1 | at -2 | at -3 | at -4 | at -5
A fixed | 1.01 | 1.38 | 1.08 | 0.973 | 0.816 | 0.333 | 0.832 | 1.25 | 1.46
D fixed | 0.814 | 0.611 | 0.589 | 0.957 | 0.459 | 0.179 | 0.421 | 0.58 | 0.651
E fixed | 0.755 | 0.417 | 0.466 | 0.681 | 0.394 | 0.167 | 0.36 | 0.562 | 0.554
F fixed | 1.06 | 0.746 | 0.893 | 0.763 | 0.505 | 0.206 | 0.451 | 0.634 | 0.678
G fixed | 1.37 | 2.03 | 1.6 | 1.25 | 0.672 | 0.399 | 1.06 | 1.33 | 1.63
H fixed | 1.06 | 1.66 | 1.43 | 1.1 | 0.974 | 0.399 | 1.1 | 0.955 | 1.06
I fixed | 0.852 | 0.592 | 0.605 | 0.684 | 0.406 | 0.25 | 0.402 | 0.623 | 0.63
K fixed | 0.89 | 0.853 | 1.13 | 1.23 | 2.57 | 2.63 | 2.51 | 2.06 | 2.15
L fixed | 1.15 | 0.694 | 0.863 | 0.792 | 0.811 | 0.251 | 0.392 | 0.601 | 0.632
M fixed | 1.57 | 0.705 | 0.719 | 0.803 | 0.727 | 0.248 | 0.52 | 0.741 | 0.664
N fixed | 1.29 | 1.23 | 1.25 | 1.2 | 0.73 | 0.304 | 0.919 | 0.856 | 1.05
P fixed | 0.329 | 1.5 | 1.78 | 1.68 | 1.09 | 0.372 | 1.23 | 1.72 | 1.25
Q fixed | 1.16 | 0.975 | 1.03 | 1.35 | 1.09 | 0.529 | 0.803 | 0.96 | 0.767
R fixed | 1 | 0.962 | 1.08 | 1.13 | 3.72 | 10 | 4.34 | 2.18 | 1.47
V fixed | 0.669 | 0.686 | 0.625 | 0.901 | 0.495 | 0.213 | 0.432 | 0.59 | 0.804
W fixed | 1.08 | 1.03 | 0.961 | 0.859 | 0.526 | 0.233 | 0.674 | 0.69 | 0.852
Y fixed | 0.931 | 0.928 | 0.906 | 0.647 | 1.01 | 0.25 | 0.55 | 0.673 | 0.719
pThr fixed | 1.1 | 0.657 | 0.676 | 1.06 | 0.334 | 0.342 | 0.612 | 0.86 | 0.713
pTyr fixed | 0.648 | 0.502 | 0.631 | 0.801 | 0.398 | 0.209 | 0.52 | 0.629 | 0.535

HUNK, construct: Full length, human (from UniProt P57058)
relative phosphorylation
Conditions | at +1 | at +2 | at +3 | at +4 | at -1 | at -2 | at -3 | at -4 | at -5
A fixed | 1.03 | 1.5 | 0.679 | 0.686 | 1.56 | 1.41 | 1.16 | 1.13 | 1.27
D fixed | 0.435 | 0.428 | 2.19 | 1.05 | 0.948 | 0.95 | 0.524 | 0.889 | 0.9
E fixed | 0.527 | 0.447 | 1.01 | 0.957 | 1.04 | 0.921 | 0.728 | 1.19 | 0.832
F fixed | 1.58 | 0.842 | 1.37 | 1.85 | 0.461 | 0.831 | 0.927 | 0.798 | 0.759
G fixed | 0.784 | 0.624 | 0.66 | 0.751 | 1.03 | 0.896 | 1.07 | 1.15 | 1.37
H fixed | 0.814 | 1.65 | 1.04 | 0.811 | 0.795 | 1.05 | 1.97 | 0.947 | 1.09
I fixed | 0.538 | 1.44 | 0.61 | 1.72 | 0.555 | 1 | 0.798 | 0.942 | 0.953
K fixed | 0.713 | 0.591 | 0.493 | 0.609 | 1.38 | 0.725 | 0.726 | 1.02 | 1.23
L fixed | 0.882 | 0.747 | 0.704 | 1.39 | 0.571 | 0.867 | 1.19 | 1.39 | 0.947
M fixed | 1.81 | 0.549 | 0.945 | 1.71 | 1.01 | 0.946 | 1.3 | 1.04 | 0.811
N fixed | 0.794 | 0.829 | 1.85 | 0.873 | 1.11 | 1.28 | 0.675 | 0.993 | 1.03
P fixed | 0.301 | 0.355 | 0.287 | 0.64 | 1.06 | 0.395 | 0.961 | 0.786 | 0.917
Q fixed | 1.73 | 0.582 | 0.661 | 0.712 | 1.17 | 1.3 | 0.749 | 0.797 | 0.725
R fixed | 1.01 | 0.814 | 0.766 | 0.758 | 2.41 | 1.44 | 1.35 | 0.963 | 1.3
V fixed | 0.701 | 2.16 | 0.599 | 0.735 | 0.576 | 1.25 | 0.559 | 0.833 | 0.842
W fixed | 1.49 | 1.7 | 2.1 | 0.853 | 0.626 | 0.916 | 0.991 | 1.15 | 0.943
Y fixed | 1.87 | 1.74 | 1.03 | 0.903 | 0.694 | 0.806 | 1.32 | 0.987 | 1.08
pThr fixed | 1.16 | 1.58 | 0.532 | 0.85 | 0.689 | 1.65 | 0.827 | 0.821 | 0.727
pTyr fixed | 0.97 | 1.71 | 0.92 | 0.972 | 0.873 | 0.669 | 0.897 | 0.783 | 0.806

MARK2, construct: Full length, human (from UniProt Q7KZI7)
relative phosphorylation
Conditions | at +1 | at +2 | at +3 | at +4 | at -1 | at -2 | at -3 | at -4 | at -5
A fixed | 0.661 | 0.734 | 0.723 | 0.42 | 1.08 | 2 | 0.814 | 1.24 | 1.05
D fixed | 0.564 | 0.774 | 2.49 | 0.401 | 0.73 | 0.399 | 0.458 | 0.956 | 0.844
E fixed | 0.799 | 1.09 | 0.957 | 0.353 | 0.654 | 0.338 | 0.52 | 0.924 | 0.899
F fixed | 0.754 | 0.856 | 0.934 | 0.625 | 0.534 | 1.35 | 0.897 | 0.947 | 1.07
G fixed | 0.6 | 0.488 | 0.517 | 0.388 | 2.43 | 1.32 | 0.775 | 1.16 | 0.977
H fixed | 0.796 | 1.06 | 1.35 | 0.44 | 0.834 | 1.29 | 1.3 | 1.11 | 0.947
I fixed | 1.16 | 0.984 | 0.682 | 3.42 | 0.568 | 0.511 | 0.548 | 0.635 | 0.932
K fixed | 0.738 | 0.476 | 0.474 | 0.271 | 1.45 | 0.982 | 1.86 | 1.3 | 1.16
L fixed | 1.22 | 1.16 | 0.965 | 5.46 | 0.755 | 0.456 | 0.56 | 0.727 | 1.51
M fixed | 2.28 | 1.12 | 0.896 | 1.64 | 0.936 | 0.711 | 0.911 | 0.911 | 1.11
N fixed | 1.12 | 1.15 | 2.48 | 0.37 | 1.05 | 0.698 | 0.734 | 1.01 | 0.846
P fixed | 0.387 | 0.616 | 0.222 | 0.3 | 1.24 | 0.475 | 0.839 | 0.884 | 0.759
Q fixed | 1.81 | 1.2 | 0.956 | 0.263 | 1.26 | 0.619 | 0.785 | 0.933 | 0.8
R fixed | 0.846 | 0.624 | 0.454 | 0.192 | 1.21 | 0.926 | 3.26 | 1.35 | 1.3
V fixed | 1.52 | 1.02 | 0.675 | 1.55 | 0.831 | 0.677 | 0.544 | 0.687 | 0.754
W fixed | 0.852 | 2.63 | 1.14 | 0.444 | 0.674 | 2.61 | 1.36 | 1.28 | 1.14
Y fixed | 0.898 | 1.02 | 1.08 | 0.464 | 0.77 | 1.64 | 0.842 | 0.947 | 0.909
pThr fixed | 1.29 | 0.81 | 0.381 | 0.287 | 0.37 | 0.438 | 0.518 | 0.756 | 0.656
pTyr fixed | 0.584 | 0.583 | 0.681 | 0.283 | 0.688 | 0.498 | 0.656 | 0.746 | 0.791
